The results in this text go back to the nanobody polyreactivity screen of Harvey et al. (2022).

This series is described as follows: yeast display, Sf9 membrane polyspecificity reagent, FACS + sequencing; frameworks hold sequencing errors. The method in brief:
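Synthetic nanobody libraries on Saccharomyces cerevisiae BJ5465 were galactose-induced for 36–48 hours, stained 1 hour at 4 °C with 10% biotinylated, detergent-solubilized Sf9 membrane reagent and enriched on streptavidin microbeads. FACS then separated cells into low and high (top ~1%) gates by anti-HA (expression) and streptavidin (reagent binding) fluorescence. Genes were colony-PCR amplified, MiSeq 2 × 250 sequenced and CDR-length filtered. A clone's polyreactivity label is that of its gate of origin.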
Regarding “QDQLVESGGGIVQAGGSLRLSCAASGFTFLYSAMGWYRQAPGKERELVAAINRSGGRTYYADSVKGRFTISRDNAKNTVYLQMNSLKPEDTAVYYCATDTYFRSSVVFRYDYWGQGTQVTVSS”, the “polyreactivity (PSR sort gate)” value is reported as “high polyreactivity”. Regarding “QDQLVESGGGIVQAGGSLRLSCAASGSTFWHNVMGWYRQAPGKERELVAAISTAGSSTYYADSVKGRFTISRDHAKNTVYLQMNSLKPEDTAVYYCAAQWPKSKYGYWGQGTQVTVSS”, the “polyreactivity (PSR sort gate)” value was “high polyreactivity”.

Turning to “QDQLVESGGGLDQAGCTLRLSCAASVGTFRYYAMGWYRQAPGKERELVASISSGGSTNYADSVKGRFTISRDNAKNTVYLQMNSLKPEDTAVYYCNADPRRPVTSYDYWGQGTQVTVSS”, the “polyreactivity (PSR sort gate)” value is given as “low polyreactivity”. Take “QDQLVESGGGLDQAGGSLRLSCAAYGSTFGYYALGWSRQAPGKERELVAAISWSGSNTYYADSVKGRFTISRDNAKNTVYLQMNSLTPEDTAVYYCAAVYRGSRAWGYDYWGQGTQVTVSS”: the “polyreactivity (PSR sort gate)” value was “high polyreactivity”. Regarding “QDQLVESGGGLLQAGASLRLSCAASGFIFDSYAIGWDRQAPGKERELVAAITSSGSSTYYADSVKGRFTISRDNAKNTVYLQMNSLKPEDTAVYYCNAVYSATVVAWRFGYWGQGTQVTVSS”, the “polyreactivity (PSR sort gate)” value is reported as “high polyreactivity”.

Regarding “QDQLVESGGGLVQAGASLRLSCAASGFIFVFNAMGWYRQAPGKERELVAAINGGDITNYADSVKGRFTISRDNAKNTVYLQMTSLKPEDTAVYYCAADGEDSLWTGYDYDYWGQGTQVTVSS”, the “polyreactivity (PSR sort gate)” value is “low polyreactivity”. For “QDQLVESGGGLVQAGASLRLSCAASGSIFYHNTMGWYRQAPGKERELLTYYADSVKRRFTISRDNAKNTVYLQMNSLKPEDTAVYYCAASPVSRTGPGDYDYWGQGTQVTVSS”, the “polyreactivity (PSR sort gate)” value was “low polyreactivity”. As for “QDQLVESGGGLVQAGCSLRLSCDASGSTSYGYAMGWYRQAPGKERELVASISYSGSSTYYADSVKGRFTFSRDNAKNTVYLQMNSLKPEDTAVYYCNAKVYPCVGPKHRYDYWGQCTQVTVSS”, the “polyreactivity (PSR sort gate)” value was “low polyreactivity”.

Turning to “QDQLVESGGGLVQAGGILRLICAASGLTFASYGMGWYRQAPGKERELVAAISSSGGITYYADSVKGRFTISRDNAKNTVYLQMNSLKPEDTAVYYCAAAKRSGYTGFKYYYWGQGTQVTVSS”, the “polyreactivity (PSR sort gate)” value is listed as “high polyreactivity”. For “QDQLVESGGGLVQAGGNLRLSCAASGSIFSDYTIGWYRQAPGKERELVADITLSSGSTYYADSVKGRFTISRDNAKNTVYLQMNSLKPEDTAVYYCAADGWYYFRSGDFEYDYWGHGTQVTVSS” the value was “low polyreactivity”; for “QDQLVESGGGLVQAGGRLRLICAAAGLIFVSNAMGWYRQAPGKERELFASISWSGGSTYYADSVKGRFTISRDNAKNTVYLQMNSLKPEDTAVYYCAAAKYVTYLSIYYYWGQGTQVTVSS”, “high polyreactivity”; for “QDQLVESGGGLVQAGGRLRLSCAASGFIFWLYAMGWYRQAPGKERELVASINWSGGDTYYADSVKGRFTISRDNAKNTVYLQMNSLKPEDTAVYYCAADWSNLGAYDYWGQGTQVTVSS”, “low polyreactivity”.

Turning to “QDQLVESGGGLVQAGGRLRLSCAASGRTFSSYAMGWYRQAPGKERELVAAISRRGSSTFYADSVKGRFTISRDNAKNTVYLQMNSLKPEDTAVYYCNADLSGQTRYDYWVQGTQVTVSS”, the “polyreactivity (PSR sort gate)” value is “high polyreactivity”. As for “QDQLVESGGGLVQAGGRLRLSCAAYGRIFRRYAMGWYRQAPGKEREFVAAISSGGSTYYADSVKVRFTISRDNAKKYRLFTAEQPETGRYRGLLLRCVRYDVNVYDYWGQGTQVTVSS”, the entry is “low polyreactivity”; as for “QDQLVESGGGLVQAGGRLRLTCAASGAIFSNYAMGWYRQAPGKERELLAAITNGVSTNYAVSVKGRLTISRDNAKNTVFLQMNSLKPEDTAVYYCAAVGYRATYRVGGYLRYYYWGQGTQVTVSS”, “high polyreactivity”; as for “QDQLVESGGGLVQAGGSHRLSCAASGRTFYLYAMGWYRHAPGKERELVAGISYRGSRTYYADSVKVRFTISRDYEKNTVYLQMNSLKPEDTAVYYCATPAGQAAYDYWGQGTQVTVSS”, “high polyreactivity”.
